Reference: the domain aggregation screens of Martell et al. (2025)

Assay: soluble fraction after stress (log2 fold change); higher = more stays soluble; pooled small domains, quantitative proteomics
Conditions: stress: 50 degC
Method in brief: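 After stress at 50°C, the amount of each protein still soluble was measured. This was done on pooled custom libraries of small protein domains, using high-throughput quantitative proteomics. The figure given is a base-two log fold change and stands for aggregation propensity, with higher values meaning more protein stays in solution.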

Row | Sequence | soluble fraction (log2)
1 | HMGLSARIAQRIHGLRTAQRMSLEALAARSGVSRSMISLIERNEASPTAVVLEKIATGLNVVLAALFDTP | -1.29
2 | HMDVSVPDVTGTRLDRAQSLLEAQGLTLGKVEEFFHATEPAGIVYDQEPRPGTRVDEGTAISVSVSKGPEA | 0.0552
3 | HMQSMEIDENEIPSIDKLSEYIEYFKRIYNALFDDKQLAITNIDVLERHFANNFNTLRFKMDE | -0.0595
4 | HMQDLAKRWVEEFGDLLYKYTLPRVSDSGIAKDLVQETFLAAWRNIDNFKGEASEKNWLFTILKNKIIDH | -0.213
5 | HMHPEQTLEKIVDISAELFAKKGYEQTSIQDILDATGLSKGGLYHHFKSKEEILEAVMQKRVQY | 0.0883
6 | HMEDEAVMQLPLSELKGLSPELLAILNGAGYEKLKDVLDLEREDIERIPGMTPERNEQLVAFLAELTE | 0.0689
7 | HMNLYHALDQQGEVYLTIPPRQSGRGKVTLMIDGRVREMDAMTDGDALKTGSKVRVTEILDENALKVEAM | 0.207
8 | HMSAVIGTATVTTSSGSLNLRESASLYSRVIRTIPRGATVDVLSRDTSWSRVRYAGSEGYVLNQYLTFQT | -0.0809
9 | HMGVSDDMARGVVRARQFLSDFAAVPLDRMTPAEAVARARQLKSELETDAKHSPWLLDVLSNA | -0.0848
10 | HMNPAYTDSRMKTFLEELPVMKASLSQKHVTRFLVWQEYIGRHPDGYGKSQFFYHLKQNLVAAKG | -0.56
11 | HMATTPEETILEYINKNNRISKQEIADLMGITRDGVSYHIKKLRKNGLLEWIGSPSNGHWEIIE | 0.274
12 | HMQITAPVQKIDGVEYYMHKVEQGQTLYSISKLYNVGVKEIQKANQLGTEGIQLGQVLKVRKGG | -0.0136
13 | HMETGFADTLRKFRKEADMTQEKLAEALGVTTGAVYKWENGRSTPEVRLLVEMADLFGTSVDALLDYKVR | -0.622
14 | HMDIFSSFVAIKNANVRELPTAKSAQVATLSKGSEVTALGKVKGKNWYLVARDGKELGYVFGSLIAEAET | -1.29
15 | HMGDADDLSRELLQQGLSLKEAVADFERRYLQQAMQRHSSIASVSEALDVHFSTLWRKLVKYNLV | -0.047
16 | HMVGDMLTQKDSEGLTAYLYQQGIISQREMLLLNGILKDRVLTGMEKGQRDSVRASMVQHLLAMLNMM | -0.848
17 | HMDGLGLGAVILAQRKRQGWTQEDLAARIGVSKGAVSKWETGQSYPDLPLVPRLAALFHITVDELLDYR | -0.662
18 | HMDSTLTNEIYNELYRAITHQELKPGQNLTLTMLKKQFNVSHTPIREALTRLSADGLVTYHPNKGMKVT | -0.274
19 | HMPQEMIEILATPNGWLRVRQGPGTNYPEITKVNSGEEFPLLEEKDSWFKIRIEEGQEGWISSQYAQKEE | -0.0402
20 | HMVLELRIGQIVRGVLLQLVGEREGIVSVGGVPVRARLEAEIPLGRGVMLQVQPGSDANNILLKPV | -0.515
21 | HMGSEEMLGALGVVERATDDGDWWIAVHGEHWRARSAQALVPGDRVRVARIDGLTLTVTPIA | -0.0957
22 | HMGAQINSPISGTILKYLVKNGDKITKDQPLVNIESMKMENTIKSDKEGIVNNINFKIGDSVNTADTLLTL | 0.0243
23 | HMYLEARVKSTTPILSKPNELGKSLGKLYTNDFVALVSLHKNGLDSYYRTANGGYINAADVVIDRDV | -0.663

Row | Sequence | soluble fraction (log2)
24 | HMEISNWLEEIGLSRYTETLSEFPLEDLVEFTDDDFKELGVLTPHRKKLLAAIATLNNDASSN | -0.255
25 | HMDVLIQEIGKRLRIQRLAMGLTQEELAKRAGISLSTLKLMEQQGKGSLQRLAKVAVVLDLDGDLRGLF | -2.42
26 | HMVITISEADVSGTYTKSITQGDWKYIRTWTPFEDERLYDLAKDPMELRDLAPAAPSKLAELRELLSALVS | -1.51
27 | HMNIDGLIGKKALVTADIDNVNSKGQIKINGLEWTARSVDDEPIPMGTEVEITAISGVKAIVRKG | 0.168
28 | HMKELAADFSRRIINARTSKGWSQADLGQRMAETINVIKSAESGKPPTDAVVKKFETVLGVILM | -0.641
29 | HMDKEPTHLHTFRLIKEGKSSEEIAEIRNITLGTVNTHLAKLIAVGELTIEQVISKHRLDYVMEAIKNSK | -0.16
30 | HMIPDLPAVGVNVHKERRRQQLSLDALAAGSGVSKAMLSQIESGKVNPTVATMWKIAHALGVDFELLLKGE | -0.154
31 | HMSAEGPALADWVVRDAHSIGAKITNSVAQLLIDRVGHNQQLLHNELQKLALVQTDISAELVKTMSHY | 0.0302
32 | HMTDSISLTLNGDPRPFRAGATVADLVRDIGLDPAKVAVERNLEIVPRSTLENVHLADGDVLEIVHFV | 0.0403
33 | HMKNIRKQAIEAIDRIKNGNPIVISKNAKLIFKNIAKEANVSPTELHREFRDVMLYVNSLKAP | -0.255
34 | HMKLSLKTQVKEYLLSYIRDKKLQPGDRLLTQRELAEMLHTSQKVAQMALNSLEEEGIIIRRLGSGSFLAR | -1.11
35 | HMGAITGLQSRVAFLKGQGTITDAEAKTAMAFLPDPTDSKEVKIAKIGQAREYIMSLIENRA | -0.106
36 | HMRIFDDNMIFPTEAEISAALKRLVMDLPKVGFLQGHGERAVDNVGERAYSMFTHANNFRYALINQGFVT | -0.176
37 | HMQQIEIEEPITVKNLSAVAGLKASEIIAKLMKLGVMSTINQVMERQHAEEIAGEYGFELVVK | 0.096
38 | HMPVSTLLGDNLRRLRTAKGYTQEAVADAARISVAAYRNYETGRAIPKVNTLLAIARALGVSLNDLVTE | -0.104
39 | HMIGVIVDEVDPDSSLKSGDIITEVNREVILNIDDFVGLVEQIQKTGRSSLLLKILRDKKSLWVTIQFV | 0.0885
40 | HMQLDLTSTLDHMYKQMRNDHPRALLMAVEKEMVLRALKETDGNQLRASDILGISRSTLRKRIEEFDINS | -1.09
41 | HMSTSIADNSSITYKVRKGDSLASIAKRHGVNINDVMRWNSVITKASQIQPGDMLTLYVRDS | 0.026
42 | HMPKDMAKRASILTAASKLFVQHGYGGVSMDQIAAEAGVSKLTVYSHYGDKDSLFAAAVQAH | -0.328
43 | HMSEDTYNTLTKGTRVYNGVDYGAKYGYNPLYYFLNYNDLRIAYGADPAKLVEHYALFGIKENRVANRQIT | -0.098
44 | HMTANTLDLTYSQFLENVKNGSVNDVTIRGNNVSGNFSDGRKFKTYAVNDPTLVEKLTKMGVNISAAPL | 0.267
45 | HMKDPSLEHIDALAGKPFQAFPGQDHRAHITAHLNFMSTNMVRNNPSIMAAIQKNILEHISLMAQEQIQL | -0.783
46 | HMVELNDNEKIVYDILKETEKIHIDELTAKVQLTQSILSGALVQMEMKGMIVSLPGKMYKLL | -0.132

Row | Sequence | soluble fraction (log2)
47 | HMQIYLTPEQFKIIDFMEQMGKITVKDVMDILNIPKRTAQLHLQKLKTLKMIAQTGKGPSSAYLL | -0.959
48 | HMDDGLTRLTPRENEVLELMAQGRSNTAIAERLVLSYGAVEKNVSSIFTKLDLPLDAGDHRRVLAVLRRLN | -0.688
49 | HMHETMGQIIKRLRKERGLTQESLAERLGVTFQAVSKWETDAGMPDVSQIVPLANAFGVRTDVLFGLEGRD | -0.111
50 | HMGIAKYRQVTEWIQNRIATGELNRGDQIESENDISRTFGISRQTVRHALGLLEQQGILTRIQGRGTFVRD | -0.661
51 | HMFANQLLLTRFDLNYIKSDVLSRQIDVLGIPIKKLTIEANNKSIWLQGTSQSLSKVRELIGIIDIRENA | -3.1
52 | HMIMMTLGEKIRSIRKAKGMTQQELAEKLNTTKQTIGKYEKGIVTNLPLFRINELARALSTTPAYLTGW | -1.41
53 | HMTKLPLLVELSRIIPTDTWVKKIKFSLGSVEFVGISKSASRLLPIVENSSYFHDTKFIGTIVT | -0.486
54 | HMEPPPSYSALLKQISSGKVKELQLVPARREVIVTYPDGRSATVAILANDQQILRTAEAAGTPLLVK | 0.207
55 | HMLYITEIQKKIMDAFLVVANESNSGTRITMNEIANKVRMTPQAIYRKHFKSVIEISDTIRD | -0.531
56 | HMPTEAIVLQQIQIRQSPSGNSKSLQQILPGAKIKITSESSVKGWKQVSLDGGQKGWIPTAAIGL | -0.0262
57 | HMTAVAAEQQAQDAYRQTAANNLNEIQAKYKLPDSESDDFFTFAYERGFTQEDFIDIGLVDKIMGDYV | 0.0927
58 | HMAPRDKADKYVAAGIAEELVPILQKVGYYLVTDLKDVKAQKIQQQIGEIIKKYKLDIEKPSVQDIEGWN | 0.0612
59 | HMSQTDTDAKDARQKILALLSDGEWHQKTELLKIDAPKEAVSNAIRYLVLEELISIDHAKVRA | -0.489
60 | HMEKERYDTGIGELNRVLGGGLVKGSLILISGDPGIGKSTLLLQTANNISKKYGKVLYVSGEESEEQIKIR | -0.319
61 | HMGDWEDFWEKEARRRKLSLDYQVVRSLSRWSREYDWGEEDVEQFLSQFPEGETVKMEDVELYFE | -1.12
62 | HMQGEAMQETVKKLDAFLQDNSVSMSALARALGVSPSLISQFRSGSYKGDSQAIAAKINSYIDNHNKKSK | 0.0765
63 | HMGPKPVDMSPIPEGQRNQVLHDWMYGRAANHPENWGQIRSDALERGLKSGLKADEIHAITGSVARALGLE | 0.12
64 | HMSPRAIYVTTSDLNMRMQPSPNAYKRGVAPRGTELLVVEWGDDWSKVIFEGDTAYAASRYLSYVKDEP | -0.487
65 | HMDLTSDANLKEAKDQILNLLNDGKRHHVTEINKILLPPVQVQEALRFLIHEETVRVDASFLF | -0.167
66 | HMDFNDPTMEKSLVELPAMSNSTLRDLSENNIKKLEELAEMSVGELMDIASKISESDASALIMEARKPWF | -0.137
67 | HMVPAMEVALEDARRAIEQVVSGERTSVQLSSQEAMIRKLQHQMAKDANLFSRSSGVEPQRRVTIYTN | 0.0136
68 | HMLQLKEPLKKVYERLTPVPKTAETILAELWEKGEYLDIAALHRALMELELSGYVRQSSPGYFGTSA | -0.096
69 | HMSEEVDVPDLVGMQLEEAEKSLEPLGLKLKIAKEIPNSEFEKGKIVDQKTKAGEKVKTGYTIEVTVSSG | -0.267
